Laboratory results reported in paper PMC9482650, “Quantitative fragmentomics allow affinity mapping of interactomes” (Nature Communications, 2022).

These binders were tested against T1, APBA2_1, Q99767 (assay: holdup assay). Details: plain residues with an end cap or a label only (N-terminal biotin on a linker: ado-ado).
T1 sequence (Q99767 563-664, limits assumed, looked up): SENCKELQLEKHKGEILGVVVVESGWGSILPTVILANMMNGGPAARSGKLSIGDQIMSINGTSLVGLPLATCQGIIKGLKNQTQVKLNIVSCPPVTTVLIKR
Design: key: below the threshold = too weak to quantify, mostly under pKd 3.1 to 4

| Binder | pKd |
| --- | --- |
| NRVDSKETEC [ADAM17, P78536] | below the threshold |

Each binder was assayed against T2, DLG3_1, Q92796 (assay: holdup assay). Details: plain residues with an end cap or a label only (N-terminal biotin on a linker: ado-ado).
T2 sequence (Q92796 125-227, limits assumed, looked up): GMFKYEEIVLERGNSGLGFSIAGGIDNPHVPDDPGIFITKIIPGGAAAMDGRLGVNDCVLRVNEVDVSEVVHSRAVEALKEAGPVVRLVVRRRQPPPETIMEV
Design: key: below the threshold = too weak to quantify, mostly under pKd 3.1 to 4

| Binder | pKd |
| --- | --- |
| NRVDSKETEC [ADAM17, P78536] | 3.77 |

What follows are binders tested against T3, DLG3_2, Q92796 (assay: holdup assay). Details: plain residues with an end cap or a label only (N-terminal biotin on a linker: ado-ado).
T3 sequence (Q92796 221-321, limits assumed, looked up): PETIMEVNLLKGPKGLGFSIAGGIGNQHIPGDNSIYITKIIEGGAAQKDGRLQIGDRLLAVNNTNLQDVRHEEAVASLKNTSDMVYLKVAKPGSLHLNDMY
Design: key: below the threshold = too weak to quantify, mostly under pKd 3.1 to 4

| Binder | pKd |
| --- | --- |
| NRVDSKETEC [ADAM17, P78536] | 4.67 |

These binders were tested against T4, DVL3, Q92997 (assay: holdup assay). Details: plain residues with an end cap or a label only (N-terminal biotin on a linker: ado-ado).
T4 sequence (Q92997 244-331, limits assumed, looked up): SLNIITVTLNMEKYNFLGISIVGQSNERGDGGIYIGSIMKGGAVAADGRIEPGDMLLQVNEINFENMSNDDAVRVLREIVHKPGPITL
Design: key: below the threshold = too weak to quantify, mostly under pKd 3.1 to 4

| Binder | pKd |
| --- | --- |
| NRVDSKETEC [ADAM17, P78536] | below the threshold |

These binders were tested against FRMPD2_1, Q68DX3 (assay: holdup assay). Details: plain residues with an end cap or a label only (N-terminal biotin on a linker: ado-ado).
Design: key: below the threshold = too weak to quantify, mostly under pKd 3.1 to 4

Sequence of FRMPD2_1, Q68DX3 (Q68DX3 770-861): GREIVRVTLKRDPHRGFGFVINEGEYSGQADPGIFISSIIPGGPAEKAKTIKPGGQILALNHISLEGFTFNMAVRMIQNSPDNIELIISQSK

| Binder | pKd |
| --- | --- |
| NRVDSKETEC [ADAM17, P78536] | below the threshold |

The binders below were run against GOPC, Q9HD26 (assay: holdup assay). Details: plain residues with an end cap or a label only (N-terminal biotin on a linker: ado-ado).
Design: key: below the threshold = too weak to quantify, mostly under pKd 3.1 to 4

| Binder | pKd |
| --- | --- |
| NRVDSKETEC [ADAM17, P78536] | below the threshold |

Each binder was assayed against GORASP2, Q9H8Y8 (assay: holdup assay). Details: plain residues with an end cap or a label only (N-terminal biotin on a linker: ado-ado).
Design: key: below the threshold = too weak to quantify, mostly under pKd 3.1 to 4

| Binder | pKd |
| --- | --- |
| NRVDSKETEC [ADAM17, P78536] | below the threshold |

Each binder was assayed against GRID2IP_2, A4D2P6 (assay: holdup assay). Details: plain residues with an end cap or a label only (N-terminal biotin on a linker: ado-ado).
Design: key: below the threshold = too weak to quantify, mostly under pKd 3.1 to 4

Sequence of GRID2IP_2, A4D2P6 (A4D2P6 272-370): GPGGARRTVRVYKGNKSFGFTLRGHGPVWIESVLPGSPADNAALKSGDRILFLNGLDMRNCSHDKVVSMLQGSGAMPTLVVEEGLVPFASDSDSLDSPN

| Binder | pKd |
| --- | --- |
| NRVDSKETEC [ADAM17, P78536] | below the threshold |

What follows are binders tested against GRIP2_4, Q9C0E4 (assay: holdup assay). Details: plain residues with an end cap or a label only (N-terminal biotin on a linker: ado-ado).
Design: key: below the threshold = too weak to quantify, mostly under pKd 3.1 to 4

Sequence of GRIP2_4, Q9C0E4 (Q9C0E4 446-548): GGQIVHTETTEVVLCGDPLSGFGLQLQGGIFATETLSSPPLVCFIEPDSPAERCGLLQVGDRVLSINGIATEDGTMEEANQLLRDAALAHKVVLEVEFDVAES

| Binder | pKd |
| --- | --- |
| NRVDSKETEC [ADAM17, P78536] | below the threshold |

What follows are binders tested against IL16_3, Q14005 (assay: holdup assay). Details: plain residues with an end cap or a label only (N-terminal biotin on a linker: ado-ado).
Design: key: below the threshold = too weak to quantify, mostly under pKd 3.1 to 4

Sequence of IL16_3, Q14005 (Q14005 1107-1207): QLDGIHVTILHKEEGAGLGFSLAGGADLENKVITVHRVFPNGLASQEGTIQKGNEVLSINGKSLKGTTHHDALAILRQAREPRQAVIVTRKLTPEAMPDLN

| Binder | pKd |
| --- | --- |
| NRVDSKETEC [ADAM17, P78536] | below the threshold |

Each binder was assayed against Inadl_6, Q8NI35 (assay: holdup assay). Details: plain residues with an end cap or a label only (N-terminal biotin on a linker: ado-ado).
Design: key: below the threshold = too weak to quantify, mostly under pKd 3.1 to 4

Sequence of Inadl_6, Q8NI35 (Q8NI35 1058-1167): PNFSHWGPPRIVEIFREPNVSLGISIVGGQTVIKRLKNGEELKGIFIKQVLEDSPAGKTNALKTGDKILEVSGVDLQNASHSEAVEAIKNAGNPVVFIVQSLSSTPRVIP

| Binder | pKd |
| --- | --- |
| NRVDSKETEC [ADAM17, P78536] | below the threshold |

These binders were tested against Inadl_8, Q8NI35 (assay: holdup assay). Details: plain residues with an end cap or a label only (N-terminal biotin on a linker: ado-ado).
Design: key: below the threshold = too weak to quantify, mostly under pKd 3.1 to 4

Sequence of Inadl_8, Q8NI35 (Q8NI35 1425-1530): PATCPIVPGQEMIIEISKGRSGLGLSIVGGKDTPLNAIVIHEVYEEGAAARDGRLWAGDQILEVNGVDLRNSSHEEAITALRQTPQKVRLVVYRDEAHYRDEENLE

| Binder | pKd |
| --- | --- |
| NRVDSKETEC [ADAM17, P78536] | below the threshold |

What follows are binders tested against LIMK2, P53671 (assay: holdup assay). Details: plain residues with an end cap or a label only (N-terminal biotin on a linker: ado-ado).
Design: key: below the threshold = too weak to quantify, mostly under pKd 3.1 to 4

Sequence of LIMK2, P53671 (P53671 143-248): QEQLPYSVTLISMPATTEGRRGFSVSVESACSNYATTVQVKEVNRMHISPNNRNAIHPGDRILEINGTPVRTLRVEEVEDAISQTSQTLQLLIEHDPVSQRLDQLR

| Binder | pKd |
| --- | --- |
| NRVDSKETEC [ADAM17, P78536] | 3.48 |

What follows are binders tested against LNX1_1, Q8TBB1 (assay: holdup assay). Details: plain residues with an end cap or a label only (N-terminal biotin on a linker: ado-ado).
Design: key: below the threshold = too weak to quantify, mostly under pKd 3.1 to 4

Sequence of LNX1_1, Q8TBB1 (Q8TBB1 261-371): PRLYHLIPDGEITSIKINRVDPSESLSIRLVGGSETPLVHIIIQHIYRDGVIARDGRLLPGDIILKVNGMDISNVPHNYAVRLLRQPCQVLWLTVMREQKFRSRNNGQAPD

| Binder | pKd |
| --- | --- |
| NRVDSKETEC [ADAM17, P78536] | below the threshold |

The binders below were run against LNX1_2, Q8TBB1 (assay: holdup assay). Details: plain residues with an end cap or a label only (N-terminal biotin on a linker: ado-ado).
Design: key: below the threshold = too weak to quantify, mostly under pKd 3.1 to 4

Sequence of LNX1_2, Q8TBB1 (Q8TBB1 371-470): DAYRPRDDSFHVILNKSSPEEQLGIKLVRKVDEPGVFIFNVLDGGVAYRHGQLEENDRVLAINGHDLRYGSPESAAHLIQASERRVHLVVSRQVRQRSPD

| Binder | pKd |
| --- | --- |
| NRVDSKETEC [ADAM17, P78536] | below the threshold |

The binders below were run against MAST1, Q9Y2H9 (assay: holdup assay). Details: plain residues with an end cap or a label only (N-terminal biotin on a linker: ado-ado).
Design: key: below the threshold = too weak to quantify, mostly under pKd 3.1 to 4

Sequence of MAST1, Q9Y2H9 (Q9Y2H9 962-1065): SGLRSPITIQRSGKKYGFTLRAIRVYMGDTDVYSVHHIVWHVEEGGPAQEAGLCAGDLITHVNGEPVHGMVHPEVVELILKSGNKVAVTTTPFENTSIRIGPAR

| Binder | pKd |
| --- | --- |
| NRVDSKETEC [ADAM17, P78536] | 3.88 |

The binders below were run against MAST2, Q6P0Q8 (assay: holdup assay). Details: plain residues with an end cap or a label only (N-terminal biotin on a linker: ado-ado).
Design: key: below the threshold = too weak to quantify, mostly under pKd 3.1 to 4

Sequence of MAST2, Q6P0Q8 (Q6P0Q8 1099-1202): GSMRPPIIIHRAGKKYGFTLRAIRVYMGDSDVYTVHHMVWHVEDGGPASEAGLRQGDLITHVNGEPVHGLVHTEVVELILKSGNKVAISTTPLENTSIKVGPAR

| Binder | pKd |
| --- | --- |
| NRVDSKETEC [ADAM17, P78536] | 4.86 |

The binders below were run against T5, MPDZ_12, O75970 (assay: holdup assay). Details: plain residues with an end cap or a label only (N-terminal biotin on a linker: ado-ado).
T5 sequence (O75970 1857-1958, limits assumed, looked up): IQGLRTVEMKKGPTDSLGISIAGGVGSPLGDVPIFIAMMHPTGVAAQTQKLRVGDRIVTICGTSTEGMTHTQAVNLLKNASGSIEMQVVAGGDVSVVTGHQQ
Design: key: below the threshold = too weak to quantify, mostly under pKd 3.1 to 4

| Binder | pKd |
| --- | --- |
| NRVDSKETEC [ADAM17, P78536] | below the threshold |

Each binder was assayed against T6, NHERF3_4, Q5T2W1 (assay: holdup assay). Details: plain residues with an end cap or a label only (N-terminal biotin on a linker: ado-ado).
T6 sequence (Q5T2W1 373-468, limits assumed, looked up): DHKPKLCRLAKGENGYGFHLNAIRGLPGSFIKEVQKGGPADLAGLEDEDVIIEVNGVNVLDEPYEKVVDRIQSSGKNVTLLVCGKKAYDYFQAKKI
Design: key: below the threshold = too weak to quantify, mostly under pKd 3.1 to 4

| Binder | pKd |
| --- | --- |
| NRVDSKETEC [ADAM17, P78536] | 3.49 |

What follows are binders tested against T7, PARD3B_1, Q8TEW8 (assay: holdup assay). Details: plain residues with an end cap or a label only (N-terminal biotin on a linker: ado-ado).
T7 sequence (Q8TEW8 196-299, limits assumed, looked up): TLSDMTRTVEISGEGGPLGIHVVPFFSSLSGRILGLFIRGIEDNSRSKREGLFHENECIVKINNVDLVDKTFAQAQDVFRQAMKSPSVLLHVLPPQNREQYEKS
Design: key: below the threshold = too weak to quantify, mostly under pKd 3.1 to 4

| Binder | pKd |
| --- | --- |
| NRVDSKETEC [ADAM17, P78536] | below the threshold |

The binders below were run against PARD3_3, Q8TEW0 (assay: holdup assay). Details: plain residues with an end cap or a label only (N-terminal biotin on a linker: ado-ado).
Design: key: below the threshold = too weak to quantify, mostly under pKd 3.1 to 4

Sequence of PARD3_3, Q8TEW0 (Q8TEW0 582-685): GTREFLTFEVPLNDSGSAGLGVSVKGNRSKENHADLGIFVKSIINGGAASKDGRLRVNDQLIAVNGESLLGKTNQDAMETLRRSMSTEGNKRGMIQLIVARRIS

| Binder | pKd |
| --- | --- |
| NRVDSKETEC [ADAM17, P78536] | below the threshold |

These binders were tested against T8, RHPN1, Q8TCX5 (assay: holdup assay). Details: plain residues with an end cap or a label only (N-terminal biotin on a linker: ado-ado).
T8 sequence (Q8TCX5 508-602, limits assumed, looked up): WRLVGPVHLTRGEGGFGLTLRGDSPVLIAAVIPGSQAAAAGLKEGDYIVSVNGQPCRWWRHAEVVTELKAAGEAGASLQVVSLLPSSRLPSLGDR
Design: key: below the threshold = too weak to quantify, mostly under pKd 3.1 to 4

| Binder | pKd |
| --- | --- |
| NRVDSKETEC [ADAM17, P78536] | below the threshold |

What follows are binders tested against SCRIB_1, Q14160 (assay: holdup assay). Details: plain residues with an end cap or a label only (N-terminal biotin on a linker: ado-ado).
Design: key: below the threshold = too weak to quantify, mostly under pKd 3.1 to 4

Sequence of SCRIB_1, Q14160 (Q14160 718-814): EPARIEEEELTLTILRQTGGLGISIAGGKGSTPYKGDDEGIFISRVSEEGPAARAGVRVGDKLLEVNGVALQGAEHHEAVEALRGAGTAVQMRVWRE

| Binder | pKd |
| --- | --- |
| NRVDSKETEC [ADAM17, P78536] | 4.49 |

These binders were tested against SCRIB_2, Q14160 (assay: holdup assay). Details: plain residues with an end cap or a label only (N-terminal biotin on a linker: ado-ado).
Design: key: below the threshold = too weak to quantify, mostly under pKd 3.1 to 4

Sequence of SCRIB_2, Q14160 (Q14160 857-960): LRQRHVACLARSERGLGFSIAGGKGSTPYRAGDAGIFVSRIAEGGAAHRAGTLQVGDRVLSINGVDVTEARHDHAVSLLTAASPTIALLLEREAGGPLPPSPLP

| Binder | pKd |
| --- | --- |
| NRVDSKETEC [ADAM17, P78536] | below the threshold |

The binders below were run against T9, SHANK1, Q9Y566 (assay: holdup assay). Details: plain residues with an end cap or a label only (N-terminal biotin on a linker: ado-ado).
T9 sequence (Q9Y566 658-767, limits assumed, looked up): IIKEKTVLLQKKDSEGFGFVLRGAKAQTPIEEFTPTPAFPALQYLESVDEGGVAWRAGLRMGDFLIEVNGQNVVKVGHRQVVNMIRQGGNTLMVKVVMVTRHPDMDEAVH
Design: key: below the threshold = too weak to quantify, mostly under pKd 3.1 to 4

| Binder | pKd |
| --- | --- |
| NRVDSKETEC [ADAM17, P78536] | below the threshold |

These binders were tested against T10, SNTG2, Q9NY99 (assay: holdup assay). Details: plain residues with an end cap or a label only (N-terminal biotin on a linker: ado-ado).
T10 sequence (Q9NY99 68-166, limits assumed, looked up): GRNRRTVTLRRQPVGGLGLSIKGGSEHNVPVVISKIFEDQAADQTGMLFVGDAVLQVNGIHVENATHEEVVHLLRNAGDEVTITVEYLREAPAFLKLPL
Design: key: below the threshold = too weak to quantify, mostly under pKd 3.1 to 4

| Binder | pKd |
| --- | --- |
| NRVDSKETEC [ADAM17, P78536] | 4.06 |

Each binder was assayed against TJP1_2, Q07157 (assay: holdup assay). Details: plain residues with an end cap or a label only (N-terminal biotin on a linker: ado-ado).
Design: key: below the threshold = too weak to quantify, mostly under pKd 3.1 to 4

Sequence of TJP1_2, Q07157 (Q07157 181-274): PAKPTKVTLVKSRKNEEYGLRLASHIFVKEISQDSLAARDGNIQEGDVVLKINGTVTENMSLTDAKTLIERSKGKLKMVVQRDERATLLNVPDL

| Binder | pKd |
| --- | --- |
| NRVDSKETEC [ADAM17, P78536] | below the threshold |
